The values below come from paper PMC10359460, “Structural basis of the T4 bacteriophage primosome assembly and primer synthesis” (Nature Communications, 2023).

First the molecules themselves.
T1: T4 primosome (gp41 helicase-gp61 primase) (Tequatrovirus T4, UniProt P04530)
T1 construct: gene 41; full-length proteins, intein fusions self-cleaved, E. coli BL21(DE3); 6:1 helicase:primase on ssDNA; with DNA primase
T1 sequence (P04530 1-475): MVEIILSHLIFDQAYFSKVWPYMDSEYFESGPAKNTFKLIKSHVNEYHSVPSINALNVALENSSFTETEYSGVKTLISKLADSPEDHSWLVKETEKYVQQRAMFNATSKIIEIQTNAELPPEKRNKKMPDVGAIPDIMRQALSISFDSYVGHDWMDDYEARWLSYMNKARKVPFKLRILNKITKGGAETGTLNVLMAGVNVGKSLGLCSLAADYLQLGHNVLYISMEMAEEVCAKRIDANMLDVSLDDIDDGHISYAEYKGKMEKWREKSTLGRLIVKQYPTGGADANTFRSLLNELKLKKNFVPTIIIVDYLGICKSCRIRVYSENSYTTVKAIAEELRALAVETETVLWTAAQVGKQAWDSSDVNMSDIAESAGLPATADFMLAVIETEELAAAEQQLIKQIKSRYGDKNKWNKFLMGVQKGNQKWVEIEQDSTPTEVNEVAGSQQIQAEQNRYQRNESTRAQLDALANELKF
T1 sequence (P04520 1-342 partner): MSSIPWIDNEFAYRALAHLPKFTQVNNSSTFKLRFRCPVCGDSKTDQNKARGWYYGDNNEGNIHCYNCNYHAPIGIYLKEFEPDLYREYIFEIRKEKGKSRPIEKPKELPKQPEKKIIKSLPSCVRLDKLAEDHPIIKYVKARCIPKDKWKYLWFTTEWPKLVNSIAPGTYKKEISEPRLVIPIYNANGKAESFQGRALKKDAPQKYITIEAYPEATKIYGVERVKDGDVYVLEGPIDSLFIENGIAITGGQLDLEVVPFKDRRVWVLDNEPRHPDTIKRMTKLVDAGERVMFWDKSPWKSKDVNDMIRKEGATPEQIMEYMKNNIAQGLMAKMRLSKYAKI

T2: gp41 helicase (Tequatrovirus T4, UniProt P04530)
T2 construct: gene 41; full-length, intein fusion self-cleaved, E. coli BL21(DE3); homohexamer, without or with ssDNA
T2 sequence (P04530 1-475): T1 sequence (P04530 1-475)

T3: gp41 helicase;gp61 primase (Escherichia phage T4 (T4 …, UniProt P04530;P04520 1-475;1-342, |))
T3 sequence 1: T1 sequence (P04530 1-475)
T3 sequence 2: T1 sequence (P04520 1-342 partner)

T4: gp41 helicase (Escherichia phage T4 (T4 bacteriophage), UniProt P04530 1-475)
T4 sequence: T1 sequence (P04530 1-475)

T5: gp41(E227Q) helicase;gp61 primase (Escherichia phage T4 (T4 …, UniProt P04530;P04520 1-475;1-342, E227Q|))
T5 sequence 1: T1 sequence (P04530 1-475) with E227Q
T5 sequence 2: T1 sequence (P04520 1-342 partner)

B1: T4 bacteriophage gp41 helicase (enzyme, UniProt P04530 1-475, looked up)
chain: T1 sequence (P04530 1-475)
notes: gp41 helicase of T4 bacteriophage, wild type; NTD (globular subdomain and helical hairpin), linking helix and RecA-like CTD; Hexamer assembled with ATPγS; also called WT gp41 helicase; T4 helicase
B2: T4 bacteriophage gp41 helicase E227Q (enzyme, UniProt P04530 1-475, looked up)
chain: T1 sequence (P04530 1-475) with E227Q
notes: gp41 helicase of T4 bacteriophage with E227Q in the walker-B motif (no ATP hydrolysis); PDB 8DTP is the wild-type parent; also called gp41(E227Q)
B3: T4 bacteriophage gp61 primase (enzyme, UniProt P04520 1-342, looked up)
chain: T1 sequence (P04520 1-342 partner)
notes: gp61 primase of T4 bacteriophage, wild type; N-terminal ZBD and C-terminal RPD joined by a linker loop (Lys97 to Lys115); the models hold a resolved full-length primase; also called WT gp61 primase; T4 primase
B4: ssDNA template/pentaribonucleotide primer (DNA:RNA)
DNA: GAATGAGGAGTAGTAGTGAATGTAGTGAGGTAATATCGGCTGGTCTGGTCTGTGCCAAGTTGCTGCAAAA
?: GCCGA
modifications: RNA primer 5'-triphosphate

Data set [1] has as its target T1, T4 primosome (gp41 helicase-gp61 primase). The data set can be described thus: cryo-EM structure. Type of data set: binding. The settings on record: WT primosome with ssDNA, closed-ring gp41; 5 mM ATPγS, 10 mM MgCl2, pH 7.8; sites on gp41.
The target of data set [2] is T2, gp41 helicase. Put plainly: cryo-EM structure. Type of data set: binding. The conditions noted are these: five of six nucleotide sites at CTD-CTD interfaces occupied; 5 mM ATPγS, 10 mM MgCl2, pH 7.8; open spiral without ssDNA (8DUO) or with ssDNA (8DUE), closed ring with ssDNA (8DTP).
Data set [3] concerns the molecule itself. Put plainly: cryo-EM structure; step 1: 6 uM gp41 helicase with 5 mM ATPγS, no DNA; 20 mM HEPES pH 7.8, 100 mM NaCl, 10 mM MgCl2, 2 mM DTT; 30 min at room temperature.
Data set [4] concerns the molecule itself. Put plainly: cryo-EM structure; primosome assembled from gp41 E227Q helicase, WT gp61 primase and the ssDNA/RNA primer substrate; helicase and primase regions refined separately.
The target in data set [5] is B2. The description is as above. The settings on record: both partners purified.
In data set [6] the target is B1. The data set can be described thus: cryo-EM structure; step 3: 6 uM gp41 helicase, 5 mM ATPγS, 12 uM ssDNA/RNA primer substrate and 3 uM gp61 primase; 20 mM HEPES pH 7.8, 100 mM NaCl, 10 mM MgCl2, 2 mM DTT; 30 min at room temperature. The conditions noted are these: both partners purified.
In data set [7] the target is T3, gp41 helicase;gp61 primase. Put plainly: cryo-EM; ATPgS; WT primosome pose 1; ssDNA seen, no RNA primer density; Cryo-EM with ATPgS (stated for gp41 and WT primosome); assembly buffer and temperature not in the material; cryo-EM proteins purified in HEPES pH 7.8 buffers. The settings on record: protein: recombinant;recombinant; tags: none (intein tag self-cleaved);none (intein tag self-cleaved); chain copies: 6;1; 70-nt DNA (strand 1) annealed to 5-nt RNA (strand 2) at internal TCGGC; single-stranded DNA on both sides.

Data set [8] concerns the target T4, gp41 helicase. The data set can be described thus: cryo-EM; ATPgS; open spiral, 10 nt ssDNA held; RNA primer not resolved; Cryo-EM with ATPgS (stated for gp41 and WT primosome); assembly buffer and temperature not in the material; cryo-EM proteins purified in HEPES pH 7.8 buffers. The conditions noted are these: protein: recombinant; tags: none (intein tag self-cleaved); chain copies: 6; 70-nt DNA (strand 1) annealed to 5-nt RNA (strand 2) at internal TCGGC; single-stranded DNA on both sides.

The target of data set [9] is T5, gp41(E227Q) helicase;gp61 primase. The data set can be described thus: cryo-EM; mutant primosome, post primer synthesis; composite map, RNA/DNA hybrid seen; Cryo-EM with ATPgS (stated for gp41 and WT primosome); assembly buffer and temperature not in the material; cryo-EM proteins purified in HEPES pH 7.8 buffers. The settings on record: protein: recombinant;recombinant; tags: none (intein tag self-cleaved);none (intein tag self-cleaved); chain copies: 6;1; 70-nt DNA (strand 1) annealed to 5-nt RNA (strand 2) at internal TCGGC; single-stranded DNA on both sides.

Residue numbers refer to the chain shown, from its start. Numbers in names are those of the source.

In the case of `Nc1ncnc2c1ncn2[C@@H]1O[C@H](COP(=O)(O)OP(=O)(O)OP(O)(O)=S)[C@@H](O)[C@H]1O` [ATPγS], the cryo-EM structure entry in data set [1] is “observed in the T4 primosome in the presence of ssDNA and ATPγS”; in [2], “five nucleotide binding pockets at the subunit interfaces occupied with ATPγS molecules”. As for B1, the “stoichiometry N” value in data set [3] came to 6 subunits.

As to B2, the binding result in data set [4] is listed as “binds”. Regarding B3, the binding result in [5] is reported as “binds”. The “stoichiometry N” value in data set [6] is 1 gp61 primase per gp41 helicase hexamer. B4: the binding result in [7], in data set [8] and in [9] was “binds” throughout.

Usually stoichiometry N stands for a count of units in the complex or per binding partner.
